Values joined by “and” are separate entries in the source; they are usually repeats but may differ in a detail not shown here. Identical values can stand only once. Like-named read-outs stand apart in the source and are kept apart here.
How the values were obtained:
[1] = Thermal stability of cysteine-NEM conjugates by DSC; assay type: physicochemical; conditions: for First Scan Tm: DSC 25-100 °C, 1 °C per minute; for Second Scan Tm: second identical scan
Method: The thermal stability of cysteine-NEM conjugates was assessed by differential scanning calorimetry (DSC). The only the conjugates tested were those determined to express at high levels, conjugate efficiently, and retain EGFR binding. Additionally, cysteine variants within the BC and FG loops were excluded. Stability data was generated by heating a 400 μL aliquot of the variant from 25° C. to 100° C. at a scan rate of 1° C. per minute in a VP-DSC instrument (MicroCal). A second identical scan was completed on the sample in order to assess the reversibility of thermal folding/unfolding. Data was fitted to a 2-state unfolding model in order to calculate the melting temperature (Table 10).

[2] = Analytical size exclusion chromatography (percent monomer); assay type: physicochemical; conditions: NEM-conjugated cysteine variants; SEC, Abs280 monomer region 5.5-6 minutes vs oligomer region 4-5.3 minutes
Method: Size exclusion chromatography was used to determine the aggregation state of the FN3 domains binding EGFR. Aliquots (10 μL) of each purified FN3 domain were injected onto a Superdex 75 5/150 column (GE Healthcare) at a flow rate of 0.3 mL/min in a mobile phase of PBS pH 7.4. Elution from the column was monitored by absorbance at 280 nm.
The percent monomer for each protein was determined by integrating the Abs280 signal and comparing the peak in the monomer region (5.5-6 minutes) to the peaks in the oligomer region (4-5.3 minutes).

[3] = test system: EGFR-overexpressing human tumor cell line H1573; experiment: Cytotoxicity assay in H1573 cells; assay type: cell-based; conditions: for potency relative to the parent conjugate (in words): VC-MMAF conjugates
Method: Cell killing was assessed by measuring viability of the EGFR-overexpressing human tumor cell line H1573 following exposure to the cysteine variant-cytotoxin conjugates. Cells were plated in black-well, clear bottomed, tissue culture-treated plates (Falcon 353219) at 7000/well in 100 μL/well of phenol red free RPMI media (Gibco 11835-030) with 5% fetal bovine serum (Gibco). Cells were allowed to attach overnight at 37° C. in a humidified 5% CO2 atmosphere. Medium was aspirated from 96-well plate and cells were treated with 50 uL of fresh media and 50 uL of 2× inhibitor made up in fresh media. Cell viability was determined by an endpoint assay with Cell TiterGlo (Promega) at 70 hours. IC50 values were determined by fitting data to the equation for a sigmoidal dose response with variable slope using GraphPad Prism 5 (GraphPad Software). Table 11 reports IC50 values obtained from analysis of the CellTiter Glo data.
Conjugates consisting of ECB147 cysteine variants, 83v2-cys, or Tencon-cys linked to a cytotoxic tubulin inhibitor from the auristatin family (FIG. 2) were tested for target-dependent cytotoxicity in cancer cells. The inhibitor was linked to the cysteine-containing protein via a non-cleavable PEG4 linker or an enzyme-cleavable valine-citrulline or valine-lysine linker. Cell killing was assessed by measuring viability of the EGFR-overexpressing human tumor cell lines H1573 and A431 as well as the EGFR-negative tumor cell line MDA-MB-435 following exposure to the protein-cytotoxin conjugates using the procedure described in Example 4.

[4] = cysteine variants conjugated to VC-MMAF, Cell TiterGlo at 70 hours, read-out: IC50

Molecule	First Scan Tm [1]	Second Scan Tm [1]	Percent monomer [2]	potency relative to the parent conjugate (in words) [3]	IC50 [3, 4]	IC50 ([3]; vcMMAF conjugate, read-out: average IC50 of two replicates)
N6C: cysteine variant of P54AR4-83v2 (printed SEQ ID NOS: 210 and 248); NEM and VC-MMAF conjugates (conjugate, NEM or vcMMAF conjugate; EGFR binding FN3 domain, NEM and VC-MMAF conjugates) MLPAPKCLVVSEVTEDSARLSWDDPWAFYESFLIQYQESEKVGEAIVLTVPGSERSYDLTGLKPGTEYTVSIYGVHNVYKDTNMRGLPLSAIFTT	71 °C	70 °C	94%	over two times more potent than the parent	0.16 nM	
D15C: cysteine variant of P54AR4-83v2 (SEQ ID NOS: 193 and 231); NEM and VC-MMAF conjugates (conjugate, NEM or vcMMAF conjugate; EGFR binding FN3 domain, NEM and VC-MMAF conjugates) MLPAPKNLVVSEVTECSARLSWDDPWAFYESFLIQYQESEKVGEAIVLTVPGSERSYDLTGLKPGTEYTVSIYGVHNVYKDTNMRGLPLSAIFTT	73 °C	73 °C	97%		0.33 nM	
S10C: cysteine variant of P54AR4-83v2 (SEQ ID NOS: 190 and 228); NEM and VC-MMAF conjugates (conjugate, NEM or vcMMAF conjugate; EGFR binding FN3 domain, NEM and VC-MMAF conjugates) MLPAPKNLVVCEVTEDSARLSWDDPWAFYESFLIQYQESEKVGEAIVLTVPGSERSYDLTGLKPGTEYTVSIYGVHNVYKDTNMRGLPLSAIFTT	68 °C	68 °C	80%		0.43 nM	
S16C: cysteine variant of P54AR4-83v2 (SEQ ID NOS: 194 and 232); NEM and VC-MMAF conjugates (conjugate, NEM or vcMMAF conjugate; EGFR binding FN3 domain, NEM and VC-MMAF conjugates) MLPAPKNLVVSEVTEDCARLSWDDPWAFYESFLIQYQESEKVGEAIVLTVPGSERSYDLTGLKPGTEYTVSIYGVHNVYKDTNMRGLPLSAIFTT	68 °C	68 °C	75%		0.75 nM	
V8C: cysteine variant of P54AR4-83v2 (SEQ ID NOS: 189 and 227); NEM and VC-MMAF conjugates (conjugate, NEM or vcMMAF conjugate; EGFR binding FN3 domain, NEM and VC-MMAF conjugates) MLPAPKNLCVSEVTEDSARLSWDDPWAFYESFLIQYQESEKVGEAIVLTVPGSERSYDLTGLKPGTEYTVSIYGVHNVYKDTNMRGLPLSAIFTT	69 °C	69 °C	91%		0.35 nM	
E14C: cysteine variant of P54AR4-83v2 (SEQ ID NOS: 192 and 230); NEM and VC-MMAF conjugates (conjugate, NEM or vcMMAF conjugate; EGFR binding FN3 domain, NEM and VC-MMAF conjugates) MLPAPKNLVVSEVTCDSARLSWDDPWAFYESFLIQYQESEKVGEAIVLTVPGSERSYDLTGLKPGTEYTVSIYGVHNVYKDTNMRGLPLSAIFTT	70 °C	71 °C	96%		0.34 nM	
T93C: cysteine variant of P54AR4-83v2 (SEQ ID NOS: 216 and 254); NEM and VC-MMAF conjugates (conjugate, NEM or vcMMAF conjugate; EGFR binding FN3 domain, NEM and VC-MMAF conjugates) MLPAPKNLVVSEVTEDSARLSWDDPWAFYESFLIQYQESEKVGEAIVLTVPGSERSYDLTGLKPGTEYTVSIYGVHNVYKDTNMRGLPLSAIFCT	69 °C	69 °C	100%	over two times more potent than the parent	0.2 nM	
E11C: cysteine variant of P54AR4-83v2 (SEQ ID NOS: 191 and 229); NEM and VC-MMAF conjugates (conjugate, NEM or vcMMAF conjugate; EGFR binding FN3 domain, NEM and VC-MMAF conjugates) MLPAPKNLVVSCVTEDSARLSWDDPWAFYESFLIQYQESEKVGEAIVLTVPGSERSYDLTGLKPGTEYTVSIYGVHNVYKDTNMRGLPLSAIFTT	71 °C	72 °C	100%		0.94 nM	
E53C: cysteine variant of P54AR4-83v2 (SEQ ID NOS: 204 and 242); NEM and VC-MMAF conjugates (conjugate, NEM or vcMMAF conjugate; EGFR binding FN3 domain, NEM and VC-MMAF conjugates) MLPAPKNLVVSEVTEDSARLSWDDPWAFYESFLIQYQESEKVGEAIVLTVPGSCRSYDLTGLKPGTEYTVSIYGVHNVYKDTNMRGLPLSAIFTT	76 °C	75 °C	97%	over two times more potent than the parent	0.09 nM	
S20C: cysteine variant of P54AR4-83v2 (SEQ ID NOS: 195 and 233); NEM and VC-MMAF conjugates (conjugate, NEM or vcMMAF conjugate; EGFR binding FN3 domain, NEM and VC-MMAF conjugates) MLPAPKNLVVSEVTEDSARLCWDDPWAFYESFLIQYQESEKVGEAIVLTVPGSERSYDLTGLKPGTEYTVSIYGVHNVYKDTNMRGLPLSAIFTT	70 °C	70 °C	94%		0.36 nM	
WT: Tencon (SEQ ID NO: 265) cysteine variant conjugated to VC-MMAF as a negative control (conjugate, VC-MMAF conjugated via cysteine; Tencon FN3 scaffold) LPAPKNLVVSEVTEDSLRLSWTAPDAAFDSFLIQYQESEKVGEAINLTVPGSERSYDLTGLKPGTEYTVSIYGVKGGHRSNPLSAEFTTGGHHHHHHC					146 nM and 166 nM	
83v2His6-cys: P54AR4-83v2 parent with C-terminal cysteine (SEQ ID NOs: 217 and 255); NEM and vcMMAF conjugates (conjugate, His6 tag, C-terminal Cys; NEM or vcMMAF conjugate; EGFR binding FN3 domain, NEM and vcMMAF conjugates) MLPAPKNLVVSEVTEDSARLSWDDPWAFYESFLIQYQESEKVGEAIVLTVPGSERSYDLTGLKPGTEYTVSIYGVHNVYKDTNMRGLPLSAIFTTGGHHHHHHC	71 °C	71 °C	97%		0.61 nM and 0.79 nM	0.7 nM
P50C (conjugate, left off: small tags and cut ends) LPAPKNLVVSEVTEDSARLSWDDPWAFYESFLIQYQESEKVGEAIVLTVCGSERSYDLTGLKPGTEYTVSIYGVHNVYKDTNMRGLPLSAIFTT	63 °C	65 °C	100%			
G51C (conjugate, left off: small tags and cut ends) LPAPKNLVVSEVTEDSARLSWDDPWAFYESFLIQYQESEKVGEAIVLTVPCSERSYDLTGLKPGTEYTVSIYGVHNVYKDTNMRGLPLSAIFTT	61 °C	61 °C	96%			
P63C (conjugate, left off: small tags and cut ends) LPAPKNLVVSEVTEDSARLSWDDPWAFYESFLIQYQESEKVGEAIVLTVPGSERSYDLTGLKCGTEYTVSIYGVHNVYKDTNMRGLPLSAIFTT	60 °C	62 °C	92%			

— US11702475B2, “Cysteine engineered fibronectin type III domain binding molecules” (Janssen Biotech, Inc., priority 2013, dated 2023)
